From US6489103

Test system: M.HhaI DNA methyltransferase (Haemophilus parahaemolyticus)
Experiment: cleavage_in_vitro
Details: up to 20% of compartmentalised genes protected from HhaI after 60-180 min; HaeIII and EcoRI sites not protected; SAM 80 uM, 25-30 C

Question: Which activity does the source give for DIG-M.HhaI-Biotin 1167 bp fragment here?
Answer: 20%
